This is an account of results in the supplement of paper PMC9170038.

Series [1] relates to MS2 coat protein. Put plainly: apparent KD of MS2 coat protein, switch ON state; designed switch direction (-1 OFF switch, 1 ON switch): 1; higher = weaker reporter binding. The settings on record: FMN input: 0 or 200 uM; Eterna round: R93 (includes R88 designs). In outline: (§1)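 The buffer was 100 mM Tris-HCl pH 7.5 with 80 mM KCl and 4 mM MgCl2, used without or with constant ligand. In it, RNA switches transcribed on-chip from Illumina sequencing clusters were titrated with SNAP-549-labelled MS2 coat protein in twofold steps from 0.7 or 1.5 nM to 3 µM. Apparent KD for each design is the median of its normalised cluster binding-curve fits.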

Series [2] has as its system MS2 coat protein. Put plainly: apparent KD of MS2 coat protein, switch OFF state (with FMN for OFF switches, without FMN for ON switches); designed switch direction (-1 OFF switch, 1 ON switch): 1; higher = weaker reporter binding. The conditions noted are these: FMN input: 0 or 200 uM; Eterna round: R93 (includes R88 designs). In outline: as §1

“AUUCCAAAUAGUCAGGAUAUCAGGCGUAAGACAUGAGGAUCACCCAUGUACUUAGUAAAAGUAACUGAGAAGGGACAGGGUGUAA [JR_SS002_Sub407]”: the “apparent KD of MS2 coat protein” value in series [1] came out at 8.64 nM; in series [2], 18.5 nM.

In the case of “CAGAGACAUGAGGAUCACCCAUGUAGGAUUAUGGGAGGAUAUACAAAGACGAGAGUCAGAGUAGAAGGCCUAGGAG [salish99-ss1-143]”, the results for the “apparent KD of MS2 coat protein” value in series [1] and in series [2] were 24 nM and 48.6 nM, respectively.

For “CAGAGGAAGAGAGAGGAUAUCCAAAGGAAAACAUGAGGAUCACCCAUGUAAAAGGUAGGAAAUUGGGAGAAGGCUCAAGAGAGAG [salish99-ss2-064]”, the “apparent KD of MS2 coat protein” value in series [1] came out at 27.4 nM; in series [2] it was 34.6 nM.

“CAGGACCUAGGAUAGGAUAUAUGAAUAAUUACAUGAGGAUCACCCAUGUCCAUUUAUAUGGGAACAUAGAAGGGUUGUGGUUAUG [Mat - Same state - Malcolm Mod - D133]”: the “apparent KD of MS2 coat protein” value was 179 nM in series [1] and 118 nM in series [2].

For the sequence “CAUAGACAUGAGGAUCACCCAUGUAGAAUUAUGGGAGGAUAUACAAAGACGAGAGUCAGAGUAGAAGGCCUAGGAG [salish99-ss1-163]”, the entries for the “apparent KD of MS2 coat protein” value in series [1] and in series [2] were 24.4 nM and 34 nM, respectively.

As for “CAUCAUGCGCCUAAGGAUAUGUCUCACAAGACAUGAGGAUCACCCAUGUAGAAUAAAUAAAUGAUGCAGAAGGUGGAGCACAUGC [Leedanla]”, the “apparent KD of MS2 coat protein” value in series [1] is 372 nM; in series [2], 586 nM.

On to “CGAAGACAUGAGGAUCACCCAUGUCGUCGUAACAGAGGAUAUGGGAGCGCCAAGGGCGCAUCAGAAGGCUGAAAAC [Beusle]”, for which the “apparent KD of MS2 coat protein” value is 17.8 nM in series [1] and 25.1 nM in series [2].

“CGAAGACAUGAGGAUCACCCAUGUGGGAAUAUGGGAGGAUAUACAAAGACGAGAGUCAGAGUAGAAGGCCUAGGAC [salish99-ss1-108]”: the “apparent KD of MS2 coat protein” value in series [1] was determined as 26.5 nM; in series [2], 75.5 nM.

As to “CGAAGACAUGAGGAUCACCCAUGUGGGAUUAUGGGAGGAUAUACAAAGACGAGAGUCAGAGUAGAAGGCCUAGGAA [salish99-ss1-124(!)]”, the results for the “apparent KD of MS2 coat protein” value in series [1] and in series [2] were 23.3 nM and 38.5 nM, respectively.

In the case of “CUGGACGUAGGAUAGGAUAUAUGAAUAAUUACAUGAGGAUCACCCAUGUCCAUUUAUAUGGGAACAUAGAAGGGUUGUGGUUAAG [Mat - Same state - Malcolm Mod - D145]”, the “apparent KD of MS2 coat protein” value in series [1] worked out at 160 nM; in series [2], 241 nM.

“GAAAAACAUGAGGAUCACCCAUGUAAGAUAAACACAGGAUAUGCGAAAAUAAACAAAUAAGCAGAAGGGUGAAAAG [Mat - Same State 1 - Tesla mod - 77]”: the figures for the “apparent KD of MS2 coat protein” value in series [1] and in series [2] were 18.5 nM and 47.4 nM, respectively.

“GAAAAACAUGAGGAUCACCCAUGUAGAAAUAUGGGAGGAUAUACAAAGACGAAAGUCAAGGUAGAAGGCCUAAAAG [Mat - Same State 1 - Eli mod - 25]”: the “apparent KD of MS2 coat protein” value in series [1] was 37.5 nM; in series [2], 78.8 nM.

For the sequence “GAAAAACAUGAGGAUCACCCAUGUAGAAAUAUGGGAGGAUAUACAAAGACGAAAGUCGAAGUAGAAGGCCUAAAAG [Mat - Same State 1 - Eli mod - D23]”, the entries for the “apparent KD of MS2 coat protein” value in series [1] and in series [2] were 25.5 nM and 66.8 nM, respectively.

“GAAAAACAUGAGGAUCACCCAUGUAGAAAUAUGGGAGGAUAUACGAAGACGAAAGUCAAAGUAGAAGGCCUAAAAG [Mat - Same State 1 - Eli mod - D22]”: the “apparent KD of MS2 coat protein” value in series [1] stood at 28 nM; in series [2] it was 57.3 nM.

In the case of “GAAAAACAUGAGGAUCACCCAUGUAGAAAUAUGGUAGGAUAUACAAAGACGAAAGUCAAAGUAGAAGGGCCAAAAG [Starry Same State 1.4 (mat747 round 1 mod)]”, the figures for the “apparent KD of MS2 coat protein” value in series [1] and in series [2] were 13 nM and 19 nM, respectively.

On to “GAAAAACAUGAGGAUCACCCAUGUGAGAUAAACACAGGAUAUGCGAAAAUAAACAAAUAAGCAGAAGGGUGAAAAG [Mat - Same State 1 - Tesla mod - 80]”, for which the “apparent KD of MS2 coat protein” value in series [1] is 27.1 nM; in series [2], 92.4 nM.

On to “GAAAAACAUGAGGAUCACCCAUGUGGAAAUAUGGGAGGAUAUACGAAGACGAAAGUCGAAGUAGAAGGCCUAAAAG [Same State 1.4d (Mat - Mod of Eli - )]”, for which the “apparent KD of MS2 coat protein” value in series [1] worked out at 29.5 nM; in series [2] it was 98.1 nM.

As to “GAAAUAAAAAGACAGGAUAUCCAAAAGAAAACAUGAGGAUCACCCAUGUAAAGAAAAUAAAAAUGGGAGAAGGGUCAAAUAAAAG [Mat - Same State 2 - JL mod - D54]”, the “apparent KD of MS2 coat protein” value was 24 nM in series [1] and 32.8 nM in series [2].

“GAAGACAUAGUAUAGGAUAUAUGAAUAAUUACAUGAGGAUCACCCAUGUGCAUUUAUAUGCGAACAUAGAAGGGUGGUAGUUGUC [Mat - Same state - Malcolm Mod - D129]”: the results for the “apparent KD of MS2 coat protein” value in series [1] and in series [2] were 633 nM and 59.2 nM, respectively.
